Test results as given in patent US20220177587A1, “METHODS AND USES OF VARIANT CD80 FUSION PROTEINS AND RELATED CONSTRUCTS” (Alpine Immune Sciences, Inc., priority 2018, published 2022).
Read-outs that look alike come from different tables or passages of the source. Values belong to the substance of their own block, whether it stands above or below them.

Legend:
huPD-L1 = huPD-L1 (Homo sapiens, UniProt Q9NZQ7); assay: Flow binding to CHO cells stably expressing PD-L1; parameters: huCTLA4 and huPD-L1, full-length mammalian surface expression constructs were generated; expressed in transfected cells; host or cells: CHO cells, lentiviral transduction, sorted to >98% purity
Protocol: (§1) Binding of selected immunomodulatory fusion proteins to cognate binding partners was assessed. […] Cells were sorted in a Bio-Rad S3 Cell Sorter (Bio-Rad Corp., USA) to >98% purity. Jurkat/IL2 reporter cells, which endogenously express CD28, were used to detect binding to CD28.
(§2) For staining and analysis by flow cytometry, 100,000 cells of appropriate transfected cells were plated in 96-well round bottom plates. Cells were spun down and resuspended in staining buffer (phosphate buffered saline (PBS), 1% bovine serum albumin (BSA), and 0.1% sodium azide) for 20 minutes to block non-specific binding. […] Primary staining was performed on ice for 45 minutes, before washing cells in staining buffer twice. Phycoerythrin (PE)-conjugated anti-human Fc (Jackson ImmunoResearch, USA) was diluted 1:150, added to cells and incubated another 30 minutes on ice. Cells were then washed twice with 150 μL/well stain buffer, fixed in 2% formaldehyde/PBS, and analyzed on Intellicyt flow cytometer (Intellicyt Corp., USA). PE Mean Fluorescence Intensity (MFI) was calculated for each cell type with FlowJo Version 10 software (FlowJo LLC, USA).
(§3) Binding assays were carried out to assess the specificity and affinity of multivalent proteins to cell-expressed CTLA-4, CD28, and PD-L1 counter structures.
(§4) The EC50 for binding also was determined.

CD28 [1] = biological target: T1, CD28 (Homo sapiens, UniProt P10747); assay: Flow binding to Jurkat/IL2 reporter cells (CD28); parameters: host or cells: Jurkat cells expressing an IL-2-luciferase reporter
Protocol: as §1, §2, §3, §4

huCTLA4 = huCTLA4 (Homo sapiens, UniProt P16410); assay: Flow binding to CHO cells stably expressing CTLA4; parameters: huCTLA4 and huPD-L1, full-length mammalian surface expression constructs were generated; expressed in transfected cells; host or cells: CHO cells, lentiviral transduction, sorted to >98% purity; conditions: CHO cells stably expressing CTLA4
Protocol: as §1, §2, §3, §4

CD28 [2] = biological target: T1, CD28; assay: Jurkat/IL2 + CHO/OKT3 +/- PD-L1 reporter assay: PD-L1-dependent CD28 costimulation; type: cell-based; parameters: host or cells: Jurkat cells expressing an IL-2-luciferase reporter; conditions: Table E22; Jurkat/IL2 + CHO/OKT3/PD-L1; CD80 Conc 5.0 nM
Protocol: Jurkat cells were then plated at 50 μL/well for a total of 100,000 cells per well.
To each well, 25 μL of test protein was added to the Jurkat cells. […] The Jurkat cells with test or control proteins were incubated for 15 minutes at room temperature. CHO-derived artificial antigen presenting cells (aAPC) displaying transduced cell surface anti-CD3 single chain Fv (OKT3) (i.e., no PD-L1), or OKT3 and PD-L1 (i.e., +PD-L1), were brought to 0.8×10^6 cells/mL, and 25 μL of cells were added to each well, bringing the final volume of each well to 100 μL. […] Jurkat cells and CHO cells were incubated for 5 hours at 37 degrees Celsius in a humidified 5% CO2 incubation chamber. Plates were then removed from the incubator and acclimated to room temperature for 15 minutes. 100 μL of a cell lysis and luciferase substrate solution (BioGlo luciferase reagent, Promega) were added to each well and the plates were incubated on an orbital shaker for 10 minutes. Luminescence was measured with a 1 second per well integration time using a BioTek Cytation luminometer, and a relative luminescence value (RLU) was determined for each test sample.

[3] = Table E23, CD80 IgV-Fc (inert) at 33.3 nM, CHO cells stably expressing PD-L1
[4] = Table E23, CD80 IgV-Fc (inert) at 33.3 nM, Jurkat (CD28)
[5] = Table E20, CHO cells stably expressing PD-L1, 33.3 nM
[6] = Table E20, Jurkats (CD28), 33.3 nM
[7] = Table E25, linker variants, 33.3 nM, CHO cells stably expressing PD-L1
[8] = Table E25, linker variants, 33.3 nM, Jurkats (CD28)

Sequence of huPD-L1 (Q9NZQ7 19-290): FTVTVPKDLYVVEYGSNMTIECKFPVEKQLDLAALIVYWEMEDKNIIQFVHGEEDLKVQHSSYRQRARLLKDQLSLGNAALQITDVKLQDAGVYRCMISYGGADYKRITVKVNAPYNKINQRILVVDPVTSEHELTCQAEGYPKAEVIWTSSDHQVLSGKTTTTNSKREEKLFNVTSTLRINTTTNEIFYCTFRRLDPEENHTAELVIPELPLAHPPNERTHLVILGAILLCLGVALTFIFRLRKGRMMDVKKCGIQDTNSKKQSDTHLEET
Sequence of huCTLA4 (P16410 36-223): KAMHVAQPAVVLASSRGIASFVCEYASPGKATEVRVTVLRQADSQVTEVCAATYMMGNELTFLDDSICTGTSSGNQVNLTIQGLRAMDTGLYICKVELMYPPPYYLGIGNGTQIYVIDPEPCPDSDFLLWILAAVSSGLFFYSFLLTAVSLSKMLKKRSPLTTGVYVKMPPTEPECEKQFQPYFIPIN

PD-L1 MFI at 33.3 nM (huPD-L1; [3]): 26510 | CD28 MFI at 33.3 nM (CD28 [1]; [4]): 82.2
Substance: H18Y/A26N/E35D/M47F/V68M/A71G/D90G

PD-L1 MFI at 33.3 nM (huPD-L1; [5]): 29730 | CD28 MFI at 33.3 nM (CD28 [1]; [6]): 544 | CTLA4 MFI at 33.3 nM (huCTLA4; Table E20, 33.3 nM): 21742
Substance: H18Y/A26E/M47L/V68M/A71G

Relative Luciferase Units (RLU), CD80 Conc 5.0 nM (CD28 [2]): 815 RLU | CD28 MFI at 33.3 nM (CD28 [1]; [6]): 2724 | CTLA4 MFI at 33.3 nM (huCTLA4; Table E20, 33.3 nM): 24335
Substance: H18Y/E35D/V68M/A71G/D90G

PD-L1 MFI at 33.3 nM (huPD-L1; [5]): 24683 | Relative Luciferase Units (RLU), CD80 Conc 5.0 nM (CD28 [2]): 895 RLU | CTLA4 MFI at 33.3 nM (huCTLA4; Table E20, 33.3 nM): 20015
Substance: H18Y/A26E/E35D/M47L/V68M

PD-L1 MFI at 33.3 nM (huPD-L1; [5]): 27806 | Relative Luciferase Units (RLU), CD80 Conc 5.0 nM (CD28 [2]): 1010 RLU | CTLA4 MFI at 33.3 nM (huCTLA4; Table E20, 33.3 nM): 24587
Substance: A26E/E35D/M47L/V68M/A71G

CTLA4 MFI at 33.3 nM (huCTLA4; Table E20, 33.3 nM): 26698
Substance: A26E/E35D/M47L/V68M/D90G

PD-L1 MFI at 33.3 nM (huPD-L1; Table E3, 33.3 nM): 7943 | PD-L1 MFI at 33.3 nM (huPD-L1; Table E4, 33.3 nM, CHO cells stably expressing PD-L1): 11871 | PD-L1 MFI at 33.3 nM (huPD-L1; Table E11, CHO cells stably expressing PD-L1, 33.3 nM): 52 | PD-L1 MFI at 33.3 nM (huPD-L1; Table E14, CHO cells stably expressing PD-L1, 33.3 nM): 68 | PD-L1 MFI at 33.3 nM (huPD-L1; Table E16, consensus variants, CHO cells stably expressing PD-L1, 33.3 nM): 58 | PD-L1 MFI at 33.3 nM (huPD-L1; [5]): 6377 | PD-L1 MFI at 33.3 nM (huPD-L1; [7]): 35 | EC50 (huPD-L1; Table E31, flow binding to CHO cells stably expressing PD-L1): 31.2 nM | CD28 MFI at 33.3 nM (CD28 [1]; Table E3, 33.3 nM): 7627 | CD28 MFI at 33.3 nM (CD28 [1]; Table E4, 33.3 nM, Jurkat cells (CD28)): 18035 | CD28 MFI at 33.3 nM (CD28 [1]; Table E11, Jurkats (CD28), 33.3 nM): 31 | CD28 MFI at 33.3 nM (CD28 [1]; Table E14, Jurkats (CD28), 33.3 nM): 30 | CD28 MFI at 33.3 nM (CD28 [1]; Table E16, consensus variants, Jurkats (CD28), 33.3 nM): 46 | CD28 MFI at 33.3 nM (CD28 [1]; [6]): 42.3 | CD28 MFI at 33.3 nM (CD28 [1]; [8]): 37 | EC50 (CD28 [1]; Table E31, flow binding to Jurkats (CD28), read-out: CD28 EC50): 164 nM
Substance: WT CD80 ECD-Fc: wild-type CD80 ECD (SEQ ID NO:2)-Fc; R&D Systems where stated [reference compound]

Relative Luciferase Units (RLU), CD80 Conc 5.0 nM (CD28 [2]): 1015 RLU
Substance: H18Y/A26E/E35D/M47L/A71G/D90G

Jurkat/CD28 MFI at 66.7 nM (CD28 [1]; 66.7 nM): 4049 | EC50 (CD28 [1]; flow binding, read-out: Jurkat/CD28 EC50): > 200 nM
Substance: CD80 (E88D/K89R/D90K/A91G/F92Y/K93R) ECD-Fc: variant full CD80 ECD fused to effector human IgG1 Fc (SEQ ID NO:1527)

PD-L1 MFI at 33.3 nM (huPD-L1; Table E10, 33.3 nM, CHO cells stably expressing PD-L1): 41 | CD28 MFI at 33.3 nM (CD28 [1]; Table E10, 33.3 nM, Jurkats (CD28)): 23 | CTLA4 MFI at 33.3 nM (huCTLA4; Table E10, 33.3 nM): 65.7
Substance: Inert Fc

PD-L1 MFI at 33.3 nM (huPD-L1; Table E19, CHO cells stably expressing PD-L1, 33.3 nM): 44 | PD-L1 MFI at 33.3 nM (huPD-L1; [5]): 77.1 | PD-L1 MFI at 33.3 nM (huPD-L1; [3]): 185 | CD28 MFI at 33.3 nM (CD28 [1]; [6]): 15.4 | CD28 MFI at 33.3 nM (CD28 [1]; [4]): 81 | CTLA4 MFI at 33.3 nM (huCTLA4; Table E19, 33.3 nM): 52 | CTLA4 MFI at 33.3 nM (huCTLA4; Table E20, 33.3 nM): 37.9 | CTLA4 MFI at 33.3 nM (huCTLA4; Table E23, CD80 IgV-Fc (inert) at 33.3 nM): 194
Substance: Fc Control

PD-L1 MFI at 33.3 nM (huPD-L1; [5]): 28546 | Relative Luciferase Units (RLU), CD80 Conc 5.0 nM (CD28 [2]): 976 RLU | CTLA4 MFI at 33.3 nM (huCTLA4; Table E20, 33.3 nM): 25404
Substance: H18Y/A26E/E35D/M47L/V68M/A71G

PD-L1 MFI at 33.3 nM (huPD-L1; [5]): 27410 | Relative Luciferase Units (RLU), CD80 Conc 5.0 nM (CD28 [2]): 852 RLU | CD28 MFI at 33.3 nM (CD28 [1]; [6]): 3389
Substance: H18Y/E35D/M47L/V68M/D90G

PD-L1 MFI at 33.3 nM (huPD-L1; [5]): 13327 | Relative Luciferase Units (RLU), CD80 Conc 5.0 nM (CD28 [2]): 851 RLU | CTLA4 MFI at 33.3 nM (huCTLA4; Table E20, 33.3 nM): 22983
Substance: H18Y/E35D/M47L/A71G/D90G

PD-L1 MFI at 33.3 nM (huPD-L1; [7]): 58 | CD28 MFI at 33.3 nM (CD28 [1]; [8]): 20 | CTLA4 MFI at 33.3 nM (huCTLA4; Table E25, linker variants, 33.3 nM): 40
Substance: Inert Fc (control)
